From US20250188194A1, “Method of treatment” (Nucleus Therapeutics Pty Ltd, priority 2021, published 2025)
Entries after “also recorded” stand apart in the source; their conditions may differ.

Columns and labels:
MPO immunized mice = assay: Mouse model of ANCA associated vasculitis; assay type: in vivo; settings: one or two doses of DX1 at 25 mg/kg, assessed day 20, versus MPO immunized control
Procedure: FIG. 9. Graphic depiction of an experiment testing the impact of DX1 in a 20-day mouse model of ANCA vasculitis.
FIGS. 10A-10D. […] Mice were treated as depicted in FIG. 9. Glomerular segmental necrosis, macrophages, neutrophils, and CD4+ T-cells was evaluated in control and MPO-immunized mice that subsequently were treated with or without one or two doses of DX1.
Mice receiving two doses of DX1 received their second dose at day 18. Mice were culled for assessment at day 20.
Mice were separated into 4 groups: Ova control (n=4); MPO immunized no treatment with DX1 (n=8); MPO immunized and 1 dose of DX1 at 25 mg/kg (n=8) and; MPO immunized and 2 doses of DX1 at 25 mg/kg.

mouse neutrophils = assay: Mouse neutrophils NETosis visualization (MPO, H3Cit, PAD4 immunostaining); assay type: cell-based; settings: 10 μM DX1 30 minutes, N=4
Procedure: (§1) Neutrophils obtained from thioglycollate-treated mice and directly plated onto 20-well plates were treated with control media or media containing 10 μM DX1 for 30 minutes, and then observed for four hours, after which cells were fixed and immunostained for markers of NETs including myeloperoxidase (MPO), H3Cit, and peptidylarginine deiminase 4 (PAD4). The percentage of NETs released per 100 cells was determined by visualization on confocal microscopy and analyzed by ImageJ (NIH).
as §1, with “stimulated with PMA for induction of NOX-dependent NETosis” for “observed”, “MPO,” for “myeloperoxidase (MPO),”, “PAD4.” for “peptidylarginine deiminase 4 (PAD4).”, “confocal fluorescence” for “confocal”, “(NIH). […]” for “(NIH).”
as §1, with “stimulated with a calcium ionophore (ionomycin, IM) for induction of NOX-independent NETosis” for “observed”, “MPO,” for “myeloperoxidase (MPO),”, “PAD4.” for “peptidylarginine deiminase 4 (PAD4).”, “confocal fluorescence” for “confocal”
All mouse work was conducted under a protocol approved by Monash University's Animal Ethics Committee. […] Cells were fixed in periodate-lysine-paraformaldehyde (PLP) overnight, immunostained for markers of NETs including myeloperoxidase (MPO, #AF3667 R&D Systems, MN, USA), H3Cit, and PAD4 (#AB128086, abcam), mounted in DAPI ProLong™ Gold (Molecular Probes, Thermo Fisher Scientific) and NETs were visualized by confocal fluorescence microscopy with a Nikon Ti-E inverted microscope (Nikon Instruments Inc, Melville, NY, USA). […]

B1: DX1: 3E10 derivative, a di-scFv having the sequence SEQ ID NO: 38; nuclear-penetrating anti-DNA binding protein (protein)
scFv: DIQMTQSPSSLSASLGDRATITCRASKTVSTSSYSYMHWYQQKPGQPPKLLIKYASYLESGVPSRFSGSGSGTDFTLTISSLQPEDAATYYCQHSREFPWTFGGGTKVEIKTVDAAPGGGGSGGGGSGGGGSEVQLVESGGGLVQPGGSLRLSCAASGFTFSNYGMHWVRQAPGKGLEWVSYISSGSSTIYYADSVKGRFTISRDNAKNSLYLQMNSLRAEDTAVYYCARRGLLLDYWGQGTTVTVSSASTKGPSVFPLAPLESTGSDIQMTQSPSSLSASLGDRATITCRASKTVSTSSYSYMHWYQQKPGQPPKLLIKYASYLESGVPSRFSGSGSGTDFTLTISSLQPEDAATYYCQHSREFPWTFGGGTKVEIKTVDAAPGGGGSGGGGSGGGGSEVQLVESGGGLVQPGGSLRLSCAASGFTFSNYGMHWVRQAPGKGLEWVSYISSGSSTIYYADSVKGRFTISRDNAKNSLYLQMNSLRAEDTAVYYCARRGLLLDYWGQGTTVTVSS
modifications: DX1 sequence
- glomerular segmental necrosis, macrophages, neutrophils and CD4+ T-cells (glomerular inflammation and pathology) (MPO immunized mice): significantly reduced glomerular inflammation and pathology; also recorded: significantly reduced amounts of all of the signs of glomerular inflammation
- percentage of NETs, unstimulated neutrophils (mouse neutrophils; no stimulus, four hours, control 3.5%±1.0): 4.0%±1.5
- percentage of NETs, ionomycin (IM) stimulation (NOX-independent NETosis) (mouse neutrophils; then IM 4 μM four hours, control 15.5%±3.1): 2.3%±0.8
- percentage of NETs, PMA stimulation (NOX-dependent NETosis) (mouse neutrophils; then PMA four hours, control 36.3%±11.1): 8.3%±2.7
